System: Escherichia coli TOP10
Assay: shrunken log2 fold change of peptide-encoding DNA abundance (4.5 h post-induction vs induction); higher = less antimicrobial activity (less host growth inhibition)
Settings: time post-induction: 4.5 h; library: site-saturation at positions 5, 18, 19, 20
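Note: peptides expressed intracellularly from a pBAD plasmid library in pooled LB shake-flask culture, induced with 0.3% L-arabinose, DNA abundance read by NGS, three biological replicates, DESeq2 with apeglm shrinkage.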

Row | Sequence | shrunken log2 fold change
1 | RRIRIRPPRLPRPRPRPQYYPRP | -1.28
2 | RRIRPRPPRLPRPRPRPNIYPRP | -0.69
3 | RRIRYRPPRLPRPRPRPYSSPRP | -0.0396
4 | RRIRVRPPRLPRPRPRPPRAPRP | 0.641
5 | RRIRYRPPRLPRPRPRPDPRPRP | -0.0317
6 | RRIRTRPPRLPRPRPRPPSRPRP | 0.191
7 | RRIRQRPPRLPRPRPRPGILPRP | -0.181
8 | RRIRERPPRLPRPRPRPWNNPRP | -0.653
9 | RRIRCRPPRLPRPRPRPHDFPRP | -0.0215
10 | RRIRFRPPRLPRPRPRPKSDPRP | 0.0639
11 | RRIRMRPPRLPRPRPRPYVMPRP | -0.0161
12 | RRIRHRPPRLPRPRPRPNTLPRP | -0.0867
13 | RRIRARPPRLPRPRPRPISCPRP | 0.0406
14 | RRIRVRPPRLPRPRPRPALCPRP | 0.555
15 | RRIRARPPRLPRPRPRPGLMPRP | 0.524
16 | RRIRFRPPRLPRPRPRPPASPRP | 0.574
17 | RRIRHRPPRLPRPRPRPCCEPRP | -0.366
18 | RRIRARPPRLPRPRPRPDEFPRP | 0.331
19 | RRIRIRPPRLPRPRPRPKYNPRP | -1.01
20 | RRIRNRPPRLPRPRPRPWFLPRP | -0.0768
21 | RRIRARPPRLPRPRPRPHFTPRP | 0.345
22 | RRIRQRPPRLPRPRPRPIIFPRP | -0.271
23 | RRIRTRPPRLPRPRPRPQIYPRP | -0.179
24 | RRIRNRPPRLPRPRPRPGEFPRP | -0.00204
25 | RRIRNRPPRLPRPRPRPMEGPRP | -0.00992

Row | Sequence | shrunken log2 fold change
26 | RRIRNRPPRLPRPRPRPAHYPRP | -0.299
27 | RRIRPRPPRLPRPRPRPRHCPRP | 0.115
28 | RRIRTRPPRLPRPRPRPKLLPRP | 0.272
29 | RRIRLRPPRLPRPRPRPMLIPRP | -0.0317
30 | RRIRLRPPRLPRPRPRPEHFPRP | 0.0339
31 | RRIRERPPRLPRPRPRPPQEPRP | 0.192
32 | RRIRCRPPRLPRPRPRPGFRPRP | 0.498
33 | RRIRSRPPRLPRPRPRPEIWPRP | 0.456
34 | RRIRPRPPRLPRPRPRPYACPRP | -0.921
35 | RRIRRRPPRLPRPRPRPDLIPRP | 0.0201
36 | RRIRTRPPRLPRPRPRPLFNPRP | -0.692
37 | RRIRVRPPRLPRPRPRPEEDPRP | 0.0704
38 | RRIRFRPPRLPRPRPRPNIQPRP | -0.973
39 | RRIRMRPPRLPRPRPRPNKDPRP | 0.0301
40 | RRIRIRPPRLPRPRPRPGNRPRP | -0.0134
41 | RRIRQRPPRLPRPRPRPVLAPRP | 0.232
42 | RRIRHRPPRLPRPRPRPCGGPRP | -0.0282
43 | RRIRDRPPRLPRPRPRPWNIPRP | 0.0629
44 | RRIRHRPPRLPRPRPRPFVFPRP | -0.0736
45 | RRIRNRPPRLPRPRPRPWFIPRP | -0.306
46 | RRIRSRPPRLPRPRPRPQMSPRP | -0.0374
47 | RRIRHRPPRLPRPRPRPTPIPRP | 0.226
48 | RRIRPRPPRLPRPRPRPPINPRP | -0.158
49 | RRIRARPPRLPRPRPRPCHEPRP | -0.055
50 | RRIRIRPPRLPRPRPRPRYRPRP | -0.386

Row | Sequence | shrunken log2 fold change
51 | RRIRSRPPRLPRPRPRPSWIPRP | -0.363
52 | RRIRSRPPRLPRPRPRPSPKPRP | 0.0583
53 | RRIRDRPPRLPRPRPRPDKHPRP | -0.0761
54 | RRIRARPPRLPRPRPRPATGPRP | 0.318
55 | RRIRMRPPRLPRPRPRPDFFPRP | 0.29
56 | RRIRHRPPRLPRPRPRPMHFPRP | -0.0161
57 | RRIRRRPPRLPRPRPRPENAPRP | 0.115
58 | RRIRWRPPRLPRPRPRPVRKPRP | 0.167
59 | RRIRWRPPRLPRPRPRPVPMPRP | 0.221
60 | RRIRCRPPRLPRPRPRPKSPPRP | -0.1
61 | RRIRQRPPRLPRPRPRPIKTPRP | -0.0201
62 | RRIRTRPPRLPRPRPRPRPCPRP | -0.0153
63 | RRIRYRPPRLPRPRPRPDIFPRP | -0.032
64 | RRIRWRPPRLPRPRPRPDYEPRP | -0.0912
65 | RRIRQRPPRLPRPRPRPVDFPRP | 0.0196
66 | RRIRCRPPRLPRPRPRPAPRPRP | 0.915
67 | RRIRGRPPRLPRPRPRPANTPRP | 0.152
68 | RRIRDRPPRLPRPRPRPKRPPRP | 0.449
69 | RRIRPRPPRLPRPRPRPCIVPRP | -0.199
70 | RRIRARPPRLPRPRPRPYLWPRP | 0.134
71 | RRIRHRPPRLPRPRPRPTHSPRP | -0.192
72 | RRIRWRPPRLPRPRPRPSSGPRP | -0.00985
73 | RRIRTRPPRLPRPRPRPDLRPRP | -0.0122
74 | RRIRKRPPRLPRPRPRPKRNPRP | 0.689
75 | RRIRMRPPRLPRPRPRPDGWPRP | 1.48

Row | Sequence | shrunken log2 fold change
76 | RRIRMRPPRLPRPRPRPINYPRP | -0.22
77 | RRIRCRPPRLPRPRPRPMMKPRP | -0.231
78 | RRIRLRPPRLPRPRPRPKLWPRP | 0.296
79 | RRIRHRPPRLPRPRPRPHHDPRP | -0.166
80 | RRIRERPPRLPRPRPRPHCAPRP | 0.201
81 | RRIRRRPPRLPRPRPRPFKWPRP | -0.157
82 | RRIRIRPPRLPRPRPRPGKCPRP | -0.215
83 | RRIRHRPPRLPRPRPRPHCPPRP | -0.207
84 | RRIRCRPPRLPRPRPRPHIQPRP | -0.73
85 | RRIRNRPPRLPRPRPRPWYLPRP | -0.0197
86 | RRIRVRPPRLPRPRPRPMHHPRP | -0.257
87 | RRIRKRPPRLPRPRPRPANMPRP | -0.167
88 | RRIRHRPPRLPRPRPRPSEEPRP | -0.00149
89 | RRIRDRPPRLPRPRPRPDNEPRP | -0.0213
90 | RRIRVRPPRLPRPRPRPPKHPRP | 0.0761
91 | RRIRWRPPRLPRPRPRPWCFPRP | -0.0366
92 | RRIRPRPPRLPRPRPRPLKHPRP | -0.221
93 | RRIRERPPRLPRPRPRPGQRPRP | -0.0192
94 | RRIRTRPPRLPRPRPRPSCRPRP | -0.219
95 | RRIRERPPRLPRPRPRPSPVPRP | -0.268
96 | RRIRGRPPRLPRPRPRPPLPPRP | 1.01
97 | RRIRERPPRLPRPRPRPTPGPRP | 0.337
98 | RRIRHRPPRLPRPRPRPDPDPRP | -0.0982
99 | RRIRYRPPRLPRPRPRPTQFPRP | -0.558
100 | RRIRIRPPRLPRPRPRPCVHPRP | -1.13

Row | Sequence | shrunken log2 fold change
101 | RRIRYRPPRLPRPRPRPLHHPRP | -1.14
102 | RRIRIRPPRLPRPRPRPMGSPRP | -0.0432
103 | RRIRLRPPRLPRPRPRPNSEPRP | -0.0888
104 | RRIRFRPPRLPRPRPRPPEEPRP | 0.153
105 | RRIRCRPPRLPRPRPRPVFYPRP | -0.379
106 | RRIRVRPPRLPRPRPRPRTCPRP | -0.143
107 | RRIRRRPPRLPRPRPRPTDWPRP | 0.414
108 | RRIRARPPRLPRPRPRPQSQPRP | -0.0155
109 | RRIRQRPPRLPRPRPRPMFEPRP | 0.118
110 | RRIRYRPPRLPRPRPRPNYWPRP | -0.698
111 | RRIRCRPPRLPRPRPRPFDNPRP | -0.437
112 | RRIRSRPPRLPRPRPRPRQCPRP | 0.159
113 | RRIRKRPPRLPRPRPRPGSNPRP | -0.0467
114 | RRIRQRPPRLPRPRPRPGGAPRP | 0.485
115 | RRIRQRPPRLPRPRPRPYIIPRP | -0.332
116 | RRIRPRPPRLPRPRPRPEYWPRP | -0.035
117 | RRIRDRPPRLPRPRPRPGWDPRP | -0.182
118 | RRIRYRPPRLPRPRPRPNTRPRP | -0.703
119 | RRIRHRPPRLPRPRPRPSRRPRP | -0.105
120 | RRIRWRPPRLPRPRPRPCNHPRP | -0.427
121 | RRIRLRPPRLPRPRPRPILNPRP | -0.389
122 | RRIRERPPRLPRPRPRPYHAPRP | 0.00489
123 | RRIRMRPPRLPRPRPRPARNPRP | -0.0385
124 | RRIRDRPPRLPRPRPRPDHEPRP | -0.148
125 | RRIRARPPRLPRPRPRPYVAPRP | -0.35

Row | Sequence | shrunken log2 fold change
126 | RRIRRRPPRLPRPRPRPNYGPRP | 0.00704
127 | RRIRVRPPRLPRPRPRPYVEPRP | -0.132
128 | RRIRRRPPRLPRPRPRPHQVPRP | 0.1
129 | RRIRQRPPRLPRPRPRPVIGPRP | -0.0941
130 | RRIRGRPPRLPRPRPRPLNMPRP | -0.114
131 | RRIRLRPPRLPRPRPRPCHSPRP | -0.011
132 | RRIRQRPPRLPRPRPRPQWVPRP | 0.0126
133 | RRIRQRPPRLPRPRPRPLNPPRP | -0.303
134 | RRIRFRPPRLPRPRPRPRAYPRP | -0.23
135 | RRIRFRPPRLPRPRPRPYKEPRP | -0.0907
136 | RRIRWRPPRLPRPRPRPRKQPRP | -0.0611
137 | RRIRQRPPRLPRPRPRPHRVPRP | -0.00151
138 | RRIRERPPRLPRPRPRPMHMPRP | -0.000687
139 | RRIRVRPPRLPRPRPRPKSGPRP | 0.148
140 | RRIRTRPPRLPRPRPRPDKYPRP | -0.147
141 | RRIRIRPPRLPRPRPRPEGGPRP | 0.155
142 | RRIRARPPRLPRPRPRPFHMPRP | -1.05
143 | RRIRHRPPRLPRPRPRPQCDPRP | -0.13
144 | RRIRKRPPRLPRPRPRPYNPPRP | -1.13
145 | RRIRKRPPRLPRPRPRPKSDPRP | -0.015
146 | RRIRNRPPRLPRPRPRPCDDPRP | 0.0873
147 | RRIRQRPPRLPRPRPRPATCPRP | -0.0483
148 | RRIRNRPPRLPRPRPRPNPYPRP | -0.151
149 | RRIRLRPPRLPRPRPRPLMRPRP | 0.807
150 | RRIRFRPPRLPRPRPRPSTQPRP | -0.503

Source: the supplement of paper PMC9112550, “Optimization of the antimicrobial peptide Bac7 by deep mutational scanning” (BMC Biology, 2022)
